Here are results for 1 substance from patent US20230002478A1.

In assay [1] the target is biotinylated SARS-CoV-2 spike RBD (Ancestral) (SARS-CoV-2) (UniProt P0DTC2). Description: AlphaLISA, inhibition of ACE2-muFc / biotinylated spike complex. A general note: Alpha assays give light when donor and acceptor beads are brought close together.
Assay [2] addresses FcγR2a R167 (UniProt P12318). Description: SPR, kinetic fit, second of two runs. On the technique in general: Surface plasmon resonance follows binding to a sensor surface in real time, without labels.
Assay [3] has as its target neonatal Fc receptor (FcRn) (Human) (UniProt P55899). Kind of assay: SPR at pH 6.0, kinetic fit.
Assay [4] concerns the target FcγR2B/C (UniProt P31994). Description: SPR, steady state fit.
For assay [5], the target named is FcγR2a H167 (UniProt P12318). Kind of assay: SPR, steady state fit.
FcγR2a H167, sequence (P12318 36-218): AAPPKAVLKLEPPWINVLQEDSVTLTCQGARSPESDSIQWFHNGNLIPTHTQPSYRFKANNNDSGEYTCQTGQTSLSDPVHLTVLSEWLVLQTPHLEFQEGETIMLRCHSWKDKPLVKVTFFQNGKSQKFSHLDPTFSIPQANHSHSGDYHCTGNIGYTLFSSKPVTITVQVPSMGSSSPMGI
Assay [6] has as its target FcγR3A 176F (UniProt P08637). Description: SPR, steady state fit.
Assay [7] concerns the target FcγR3A 176V (UniProt P08637). Kind of assay: SPR, steady state fit.
Assay [8] deals with Fc-gamma Receptor 1 (FcγR1) (UniProt P12314).
Fc-gamma Receptor 1 (FcγR1), sequence (P12314 16-288): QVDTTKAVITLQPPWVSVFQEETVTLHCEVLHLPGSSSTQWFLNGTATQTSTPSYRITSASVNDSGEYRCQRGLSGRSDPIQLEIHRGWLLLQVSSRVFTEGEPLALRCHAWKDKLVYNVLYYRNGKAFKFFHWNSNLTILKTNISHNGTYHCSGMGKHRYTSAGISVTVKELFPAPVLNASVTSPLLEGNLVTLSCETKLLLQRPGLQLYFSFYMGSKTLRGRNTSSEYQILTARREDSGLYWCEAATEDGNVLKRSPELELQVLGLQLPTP
Assay [9] concerns the target FcγR2a R167 (UniProt P12318). Kind of assay: SPR, steady state fit, second of two runs.
The target in assay [10] is neonatal Fc receptor (FcRn) (Human) (UniProt P55899). Kind of assay: SPR at pH 6.0, experimental Rmax / theoretical Rmax.
neonatal Fc receptor (FcRn) (Human), sequence (P55899 24-297): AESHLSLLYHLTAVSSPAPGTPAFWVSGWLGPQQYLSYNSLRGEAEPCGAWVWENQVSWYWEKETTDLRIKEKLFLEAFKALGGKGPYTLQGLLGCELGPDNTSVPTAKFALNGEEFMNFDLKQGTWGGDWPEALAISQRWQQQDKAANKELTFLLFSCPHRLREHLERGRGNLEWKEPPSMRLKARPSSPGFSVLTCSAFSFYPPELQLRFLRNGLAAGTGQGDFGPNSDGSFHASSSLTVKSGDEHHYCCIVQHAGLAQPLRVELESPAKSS
Assay [11] has as its target FcγR2B/C (UniProt P31994). Kind of assay: SPR, experimental Rmax / theoretical Rmax.
Assay [12] has as its target FcγR3A 176F (UniProt P08637). Description: SPR, experimental Rmax / theoretical Rmax.
For assay [13], the target named is Fc-gamma Receptor 1 (FcγR1) (UniProt P12314). Kind of assay: SPR, experimental Rmax / theoretical Rmax.
Assay [14] addresses neonatal Fc receptor (FcRn) (Human) (UniProt P55899). Description: SPR at pH 6.0, steady state fit.
In assay [15] the target is FcγR2a R167 (UniProt P12318). Kind of assay: SPR, kinetic fit, first of two runs.
FcγR2a R167, sequence (P12318 36-218 H167R): as the sequence (P12318 36-218) above, with H132R counted along it
For assay [16], the target named is FcγR2a R167 (UniProt P12318). Description: SPR, steady state fit, first of two runs.
In assay [17] the target is FcγR2B/C (UniProt P31994). Description: SPR, kinetic fit.
FcγR2B/C, sequence (P31994 46-217): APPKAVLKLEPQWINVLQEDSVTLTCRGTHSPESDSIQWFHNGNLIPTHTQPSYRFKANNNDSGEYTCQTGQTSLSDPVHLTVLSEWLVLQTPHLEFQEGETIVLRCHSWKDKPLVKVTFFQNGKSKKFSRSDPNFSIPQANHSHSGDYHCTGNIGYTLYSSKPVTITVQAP
In assay [18] the target is FcγR2a H167 (UniProt P12318). Kind of assay: SPR, kinetic fit.
For assay [19], the target named is FcγR3A 176F (UniProt P08637). Kind of assay: SPR, kinetic fit.
FcγR3A 176F, sequence (P08637 17-208): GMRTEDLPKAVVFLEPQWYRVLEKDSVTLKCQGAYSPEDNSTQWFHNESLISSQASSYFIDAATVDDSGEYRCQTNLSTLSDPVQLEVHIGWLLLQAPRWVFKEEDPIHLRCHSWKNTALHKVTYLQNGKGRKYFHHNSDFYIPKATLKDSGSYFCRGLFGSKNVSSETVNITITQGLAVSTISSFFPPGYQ
Assay [20] deals with FcγR3A 176V (UniProt P08637). Description: SPR, kinetic fit.
FcγR3A 176V, sequence (P08637 17-208 F176V): as the sequence (P08637 17-208) above, with F160V counted along it

For orientation: IC50 means the concentration that inhibits the measured activity by half. Lower therefore signals greater potency. A word on the Kd: it is a measure of binding affinity in units of concentration. High values mean weaker binding, low ones tighter binding. With “anti-RBD neutralizing monoclonal antibody (human IgG1) from Acro Biosystems (SAD-S35)”, in assay [1], the IC50 was found to be 0.0068 µM. In addition, the Kd worked out at 0.65 µM with FcγR2a R167 [2]; 0.0811 µM in [3]; 1.59 µM with FcγR2B/C [4]; 0.537 µM with FcγR2a H167 [5]; 0.796 µM in the assay with FcγR3A 176F [6]; 0.21 µM with FcγR3A 176V [7]. In addition, the Kd was 0.00046 µM in [8]; 0.64 µM with FcγR2a R167 [9]; 0.0865 µM in assay [14]; 0.596 µM with FcγR2a R167 [15]; 0.636 µM with FcγR2a R167 [16]; 1.36 µM with FcγR2B/C [17]. Moreover, the Kd with FcγR2a H167 [18] was determined as 0.462 µM; with FcγR3A 176F [19] it was 1.11 µM; with FcγR3A 176V [20], 0.161 µM. Besides, the % Activity came to 116% in assay [10], 93% with FcγR2B/C [11], 92% with FcγR3A 176F [12] and 120% in assay [13].
